This data set concerns the molecule itself. Description: analytical ultracentrifugation (sedimentation velocity), monomer-dimer self-association. The protocol: All sedimentation velocity experiments were performed with the Beckman Coulter Optima XL-I using an An60 Ti rotor and charcoal-filled Epon double-sector cells. […] Experiments were performed at 42,000 rpm for 8 h at 20° C. Radial absorbance scans were collected in continuous scan mode at 280 nm every 10 min at a spacing of 0.001 cm.

B1: Full-length human Pim-1 kinase (residues M1-K313) with N-terminal HexaHis tag and thrombin cleavage site (enzyme)
chain: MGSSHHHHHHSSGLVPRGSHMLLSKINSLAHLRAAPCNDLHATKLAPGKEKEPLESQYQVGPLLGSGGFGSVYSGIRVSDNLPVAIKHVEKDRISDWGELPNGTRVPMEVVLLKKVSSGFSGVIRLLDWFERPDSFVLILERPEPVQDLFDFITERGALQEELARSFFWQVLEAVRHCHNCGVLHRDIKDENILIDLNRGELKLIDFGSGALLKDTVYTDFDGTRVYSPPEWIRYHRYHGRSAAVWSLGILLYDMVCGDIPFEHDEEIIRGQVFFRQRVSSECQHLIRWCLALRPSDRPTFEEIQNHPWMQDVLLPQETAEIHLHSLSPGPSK
modifications: heterogeneous phosphorylation (mixture of species with 0-5 phosphoryl groups): extensively phosphorylated in the HexaHis tag region; Ser261 major site in Pools III and IV; minor sites Ser8, Thr23 and Ser98
notes: Expressed in E. coli and purified by TALON, Superdex 200 and MonoQ; also called Pim-1 protein
Usually Kd stands for a measure of binding affinity in units of concentration. Lower therefore signals a tighter complex. With B1, the Kd was found to be 23 µM and the “monomer:dimer ratio (dimer share)” value amounted to 20.

The values are drawn from US20070031956A1 (VERTEX PHARMACEUTICALS, published 2007).
